Data reported in the DeepSol protein solubility set.

Assay: soluble on expression in E. coli; label from the status in PepcDB or PDB records

| Sequence | soluble on expression in E. coli |
| --- | --- |
| MLPAEREQFIITFLKTNKKATIHDLALEFNVHEATIRRDLNKLEQYNQIKRTHGGVVLNDSEVWDELNFDDRETSYYDEKVAIGLKAAEFVENGDTLFIDSGSTTIHFARALTQKSNLTIITNDIHIASILKSTANQIIVTGGILYQDNYLLNGMITNETLKLFNPSKLFLATPAIDLEKGITHFNDTLASTKIQMVKQAKAVYVLTDSSKFDKVALYNVCSSDTIDVLITDQTNKNIDWQAYDNHFKHLITVHAEAHPELEHHHHHH | soluble |
| MLPCRANCFTLEISLMHINIAWQDVDTVLLDMDGTLLDLAFDNYFWQKLVPETWGAKNGVTPQEAMEYMRQQYHDVQHTLNWYCLDYWSEQLGLDICAMTTEMGPRAVLREDTIPFLEALKASGKQRILLTNAHPHNLAVKLEHTGLDAHLDLLLSTHTFGYPKEDQRLWHAVAEATGLKAERTLFIDDSEAILDAAAQFGIRYCLGVTNPDSGIAEKQYQRHPSLNDYRRLIPSLM | not soluble |
| MLPFANYYISSPSVSEKNAINNNVNKRRKKKRAMMVYGGGGGGDDLAVVKAAAWAWYLRKEGKPIMREFDVTRAQRIPRPSRYKIEATKNMILSENRVLAENRVSSTKSPLWYTNYQFRGDQETYYSRLLDTYETKNISKRLNIDDSSFSTSLSSVLKHNGDDHHNHNRNDDYGFDDHGLLKKRNGSDSNTTTRSKTNNDKSYNGGFMKKVSKRSLWKGMIVMGPGSTVCGRSDDVASQAGRRTVKVAVAAEALVRSAASGSGKTQSGHC | not soluble |
| MLPNGRKWLDLWRKNVTVTAGGFLAISATTGVAGYEMAKDDVTLIKNGNKQEIRTHAKTVKELLAEQNIQPRKEDYVYPSLHSPITDDLHIVWEASKEVTLTVNGKKKKIWTTADTVAELLRSQHVAVGAYDKVAPALSAKIQKGMDIGVEKAFPVHVNVGGKQQQVWTTSTTVADFLKQQGIQLGQFDRIEPSLHETVKEQMTIRVIRVKKVTDVVEEPVDFAVVTKRDDSLPKGERRVIQPGEKGMVQKTYEVTLENGKETARKLIAAKTLKESKARIVAIGTKTVRSAAAPDRPSSRGSDHAAKEFYVTATAYTAYCAGCSGITSTGINLRKNPSAKVIAVDPSIIPLGSKVYVEGYGYAIAADTGSGIRGYKIDVFFPERSDAFRWGRKRVKIRVLP | not soluble |
| MLPRAEQKQQTRRALLDAAHQLMESGRGFGSLSLREVARTAGIVPTGFYRHFEDMDQLGLALVIEVGQTFRETIRLVRHNEFAMGGLIRASVKIFLERVAANRSQFLFLAREQYGGSLKVRQALGALREGISADLTADLAKMPKWQHLNADALSIIADLVVKSVFAMLPELIDPPPASLAPHLTPQAKITQQLRFIFIGARHWRGLGTHD | not soluble |
| MLPVSCKLPNMGTYQSYLSSSMPAGCVLPVGGNFEILLHYYLLNYAKKCHQSEETMVSMIIANALLGIPKVLYKSKTGKYSFPHTYIRAVHALQTNQPLVSSQTGLESVMGKYQLLTSVLQCLTKILTIDMVITVKRHPQKVHNQDSEDELLEHHHHHH | not soluble |
| MLQCIFLISDSGEVMLEKQLTGHRVDRSICAWFWDQYISQGDSFKALPVIASPTHYLFQIVRDGITFLACSQVEMPPLMAIEFLCRVADVLSEYLGGLNEDLIKDNFIIVYELLDEMIDNGFPLTTEPSILKEMIAPPNLVSKMLSVVTGNASNVSDTLPSGAGSCVPWRPTDPKYSSNEVYVDLVEEMDAIVNRDGELVKCEIYGEVQMNSQLTGFPDLTLSFANPSILEDMRFHPCVRYRPWESHQVLSFVPPDGEFKLMSYRVKKLKNTPVYVKPQITSDSGTCRISVLVGIRSDPGKTIESITLSFQLPHCVSSADLSSNHGTVTILSNKTCTWTIGRIPKDKTPCLSGTLALEPGLERLHVFPTFKLGFKIMGIALSGLRIEKLDLQTIPPRLYKGFRAQTRAGEFDVRL | soluble |
| MLQLKNIGILSTYNSKTDSFDYLKNCNIDIENGIIIGLGDSNHNGDQVIDCNHKLVTPGFVDAHTHPVFVNGREKEFIERISGKSYQEISNKGGGINSSIIRVREIDEIDLLDLVIKRMDDFIYMGTTTIEAKTGYGLNTDSELKSLRVLENAHNKHKIDIFPTFLGAHSVPNEYNGDSNAYTDLLCNEMIPAVAKQGIAKFCDVFCEEEYFDCNQSRKILEKAVEYGLIPRMHTDEFSSIGGVKIASKINAISADHLMEISDEDIELLANSNTIAILLPGTTFFLGKTTYAPARKLIDKGVHVSIATDFNPGSCHIKSMPFIIGLSCIYLGLSIEEALKAATWSGACAINEQERIGSIEVGKKADLIIWDLDTIDQIPYNIINAPIVNVIKDGVPLITLD | soluble |
| MLQNSRIKMNPKKLYQADGHAVQELLPAMKILYQAKAEDPNTDNSPKWTQVKNKLSSKMQEVRITRQLSSQLPETGALLSELLSRQEFISQQHERAASRAVPLAEAEKVLQATVQNIAQETEQLSNKLNNVASDEAELDEKIERKKREYEQLQKRFAKLQSFRPQYMDEYERFEERLKKLYEVYVLNFRNLSYLRKVHDDLARSERQRQEELEKAMRMAVEKMRLEQEKKDAIGLHDDDGSDAPLVDRRQSVRKVYGNMMGGDASDDDEDDEDDEDDEIIRMDDNVAQHHKRELHRQEEDEERSEADYMVGITTAHVADDAKSDLSSGDDF | not soluble |
| MLQPPTLTPNANGEEFRGSVSTDRSSASPSNIDEIMEDDVNQKDEDEDLNLVDRVSKLETNFVFIQHQLSSIMNHLHAPQCKCTTCSKVNQPGAEEQKNDTSVLSQLFPNASDQQLKTLLDLSKMNKLPSQVVHKDQQNGSSFLPSANKTSENPKPIELKPLKLGQGYQMANGGGGGKIHTERLSEPARKQSRKVGFPPPVASYYQRKESSNPLVPPTPLSSIPNLITNSNAVSANTSTASPGPSSEGSGDDHLEAPNEVAHMHSSTVPATPTTPGANLFTQSMVDMLKLNAQNAAHSTGSPGFLRGRGRGRPKLIGDELDADLVDYMVSLKNSDPHGGHFTASQALHMARQYILERAPGLLEEHGGHVKLKLTWAMKLVSRIGERQREIELGLPAGTLSNMGRNLTNIPAGGNFMADMMAQNIFSQHMMMVNQQLEGGSPPASSSSTATTSTATKTVKQESKNGHQNEENLNVKQEASTMPEIINIKELNLPFLNNFLAELNDNNSGLIDGEIGAAGPSMAALFAPNA | not soluble |
| MLQPTPTLTDQVAGQLARAIADGAYAVGAKLPTGRALAQQYGVSAAVIREATERLRAQGLVQSRQGSGCTVVARMPAGGFQVPAGGLDRAHLARVYELRMELEGGAAALAARRRGAADLDRMRQALQALQREPIEPEQGVVHDVGFHVAIATATANPYYLQLLQYLNLQLRQAVETARANTRRQGDPVHAVHEEHLAIYRAIERGEPEAARAAAQHHLLGAAARLQLDMNL | not soluble |
| MLQSLKDVAKQAPVHRKLDIQEWKTAEGAKVLFVEAHELPMFDLRLTFAAGSSQDAGTPGLSMLTNAMLNEGVPGKDTTAIAAGFEDLGASFSNGSYRDMAVAGLRSLSEADKRTQALKLFEQVIGQPTFPEDALARIKNQVLAGFEYQKQNPGKLAGLELFKRLYGEHPYAHSSDGDEKSVPTISREQLQAFHKKAYAAGNVVIALVGDLSRQEAEAIAAEVSKALPQGPALAKTLEHHHHHH | soluble |
| MLQYPELPLESPLIDAELPDPRGGRYRLSQFHEPLLAVVFMCNHCPYVKGSIGELVALAERYRGKVAFVGINANDYEKYPEDAPEKMAAFAEEHGIFFPYLLDETQEVAKAYRALRTPEVFLFDERRLLRYHGRVNDNPKDPSKVQSHDLEAAIEALLRGEEPPLKEAPAIGCTIKWRPGNEPEVRIG | soluble |
| MLREFSFYDVPPAHVPPVSEPLEIACYSLSRDRELLLDDSKLSYYYPPPLFSDLNTGFPNRFHPPKSDPDPISIVKDVLMTKGIQMNSSFLTWRGLITKIMCAPLDPRNHWETYLVMDPTSGIIMMEERTRSETSYANQDRMCYWGYKFEAISTLPEIWDACSRDQIEQRDNQDVVPDEQYCSIVKINIGKSKLILAGEVDCIWDKKPCSAKESDVHSDDGTIEEDASNAENPNLHYVELKTSKKYPLENYGMRKKLLKYWAQSFLLGIGRIIIGFRDDNGILIEMKELFTHQIPKMLRPYFKPNDWTPNRLLVVLEHALEWIKQTVKQHPPSTEFTLSYTGGSKLVLRQIILEHHHHHH | soluble |
| MLREKAMRSWKPIALGVTLALSSQFSWAAVIETTRLVGFGEAKYPENFTHFDYVNPQAPKYGKVTFGELGTYDNFNRFASRGVAAANTAELYDPLMFSPADEIDSYYPLIASKIRYSDDFTWLEIDLNPNARFHDGKPITAQDVEFSFEKFMAEGVPQYRVYYQDVKSVKAIAERTVRIEMKQPNREQLFSLAQSTRVLPKHYWQYKNLAEPLNEPPVGSGAYQIVDFKPGQSVTYKLNPDYWAKDLPVNVGRNNFAQIQYDYYRDDTVMLEAFKAGEFDLREENQAKFWATSYTGRNFDQGLIKKEEIAHQAPASTQGFIFNTQRPVFQDVRVREALNYALDFEWMNKNLFYDQYQRTRSYFQNTEYEAQGLPNAAELAVLTPYKEQLPARVFTETYQPSVTDGSGRIRTQMREAFALLKEAGWELKNKVMTNVKTGEPLSFELLIYSPTTERIAIPLQKNLQLMGIEMKIRTVDTTQYTKRLRDRDFDMISHGFSANPYPSPNLLIVWNSNYMDSSYNSAGANHPVIDALTEQIAKSQQDTEKLRALGSALDRVLQWNFYIIPQWHLSMYRVAMWDKFSRPSVLPKYSLGLDTWWIDQEKAARLPEKRR | not soluble |
| MLRGGVNDCKIKWEFLIGNSIDSSPILAKNGTIYLGSSNKNLYAINTDGSVKWFFKSGEIIECRPSIGKDGTIYFGSDKVYAINPDGTEKWRFDTKKAIVSDFTIFEDILYVTSMDGHLYAINPDGTEKWRFKTKKAIYATPIVSEDGTIYVGSNDNYLYAINPDGTEKWRFKTNDAITSAASIGKDGTIYFGSDKVYAINPDGTEKWNFYAGYWTVTRPAISEDGTIYVTSLDGHLYAINPDGTEKWRFKTGKRIESSPVIGNTDTIYFGSYDGHLYAINPDGTEKWNFETGSWIIATPVIDENGTIYFGTRNGKFYALFNLEHHHHHH | soluble |
| MLRNLKKTLVLDSSVFIQGIDIEGYTTPSVVEEIKDRESKIFLESLISAGKVKIAEPSKESIDRIIQVAKETGEVNELSKADIEVLALAYELKGEIFSDDYNVQNIASLLGLRFRTLKRGIKKVIKWRYVCIGCGRKFSTLPPGGVCPDCGSKVKLIPRKRLEHHHHHH | not soluble |
| MLRRSSRHADQRKNGAQLRAEEEANKVKLRLTAENEKLKSEVEKLKKDHEELSRVTLKVNTEFTIQESHMARLLRENMSLKEQLNDFSFKLRFRDDMSRVEEQVKKEQGVTDGYRRRVNQLTEFHVKSQEEQRGEPFPWRTCEICACKFEGETMDQTPRVLGCGHTMCMGCVQKIVGQGYIKCPFCRIVTKIGTTPLNNLPKNYIVLNM | not soluble |
| MLSFCPSCNNMLLITSGDSGVYTLACRSCPYEFPIEGIEIYDRKKLPRKEVDDVLGGGWDNVDQTKTQCPNYDTCGGESAYFFQLQIRSADEPMTTFYKCVNCGHRWKEN | not soluble |
| MLSPDNVFIAIKPVDMRRGIDSLTQYIQDELRSTWHEGAAFVFVNKARSRIKVLRWDKHGVWLCTRRLHKGSFRWPRANDAAWHLTPDEFNWLIAGVDWQQVKGHDLTKWVWQNEPELRPENTQNTLLTQ | not soluble |
| MLSRFSGKVALVTGSSNGIGRAAAVLFAKDGAKVTVTGRNAERLEETRQEILKSGVPESHVLSVATDLAAEKGQDELVNSTIQKFGRLDILVNNAGAAFNDDQGRVGVDQDVSVYDKIMQINMRSVVTLTQKAKEHLVKAKGEIVNVSSIAGTAHAQPGVMYYAMSKSALDQFTRCAAIDLIQYGVRVNSVSPGGVTTGFGEAMGMPSGAFEEMMKFMESRKECIPSGAVAKPIDIANIIAFLADRKLSSYIIGQSIVADGGSTLVLGMNAHNWADLMKQS | not soluble |
